This is an account of results in patent US7563582 (Sanofi, dated 2009).

In the assay the target is T1, GST-zyxin(1-142) (UniProt Q15942 1-142).
T1 construct: Expressed in E. coli; also called zyxin derivative; GST fusion protein with the N-terminus of zyxin; not shown: glutathione S-transferase
T1 sequence (looked up): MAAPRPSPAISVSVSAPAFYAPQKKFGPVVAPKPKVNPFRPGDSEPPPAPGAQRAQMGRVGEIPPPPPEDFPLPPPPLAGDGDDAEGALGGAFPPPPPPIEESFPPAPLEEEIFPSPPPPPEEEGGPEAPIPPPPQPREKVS
In words: solid-phase assay (DELFIA) in 384-well plates, 20 µl per well, GST-zyxin(1-142) coated, VASP as ligand. How it is done:
In the solid-phase assay, a binding partner (VASP or zyxin) was immobilized on the surface of a microtiter plate (MTP) (=coating). The unsaturated binding sites on the surface of the plastic were blocked, and the surface was then incubated with the respective other binding partners. After the incubation, excess unattached protein was removed in a washing step. Using suitable antibodies, it was now possible to detect and quantify the specifically bound protein. Here, it was possible to improve the signal-noise (S/N) ratio considerably by using lanthanide chelates as fluorescent labels for the antibodies and the measurement of the time-resolved fluorescence.
The volume per well used depended on the selected MTP format (50 µl or 100 µl for 96-well plates, 20 µl for 384-well plates).

B1: recombinant human VASP protein with complete amino acid sequence obtained from insect cells (other, UniProt P50552 2-380, looked up)
chain: SETVICSSRATVMLYDDGNKRWLPAGTGPQAFSRVQIYHNPTANSFRVVGRKMQPDQQVVINCAIVRGVKYNQATPNFHQWRDARQVWGLNFGSKEDAAQFAAGMASALEALEGGGPPPPPALPTWSVPNGPSPEEVEQQKRQQPGPSEHIERRVSNAGGPPAPPAGGPPPPPGPPPPPGPPPPPGLPPSGVPAAAHGAGGGPPPAPPLPAAQGPGGGGAGAPGLAAAIAGAKLRKVSKQEEASGGPTAPKAESGRSGGGGLMEEMNAMLARRRKATQVGEKTPKDESANQEEPEARVPAQSESVRRPWEKNSTTLPRMKSSSSVTTSETQPCTPSSSDYSDLQRVKQELLEEVKKELQKVKEEIIEAFVQELRKRGSP
notes: mature; also called baculo VASP; vasodilator-stimulated phosphoprotein
On to B1, for which the S/N ratio is roughly 100.
